± gives the uncertainty stated by the source.
B1: POU domain, class 5, transcription factor 1, residues 134 to 212; numbered along this chain, Q01860 (parent)
chain: EESQDIKALQKELEQFAKLLKQKRITLGYTQADVGLTLGVLFGKVFSQTTICRFEALQLSFKNMCKLRPLLQKWVEEAD

Variants of: B1
Assay: abundance fitness (aPCA) (normalised: wild type 0, dead -1); higher = more abundant; growth selection in yeast, the domain comes from the species named
Details: Homo sapiens

Variant	abundance fitness
EESQDIKALQKELEQFAKLLKQKRITLGYTQADVGETLGVLFGKVFSQTTICRFEALQLSFKNMCKLRPLLQKWVEEAD [L36E]	0.155 ± 0.094
EESQDIKALQKELEQFAKLLKQKRITLGYTQADVGCTLGVLFGKVFSQTTICRFEALQLSFKNMCKLRPLLQKWVEEAD [L36C]	0.111 ± 0.16
EESQDIKALQKELEQFAKLLKQKRITLGYTQADVGATLGVLFGKVFSQTTICRFEALQLSFKNMCKLRPLLQKWVEEAD [L36A]	0.273 ± 0.065
EESQDIKALQKELEQFAKLLKQKRITLGYTQADVGDTLGVLFGKVFSQTTICRFEALQLSFKNMCKLRPLLQKWVEEAD [L36D]	0.112 ± 0.1
EESQDIKALQKELEQFAKLLKQKRITLGYTQADVGFTLGVLFGKVFSQTTICRFEALQLSFKNMCKLRPLLQKWVEEAD [L36F]	0.013 ± 0.26
EESQDIKALQKELEQFAKLLKQKRITLGYTWADVGLTLGVLFGKVFSQTTICRFEALQLSFKNMCKLRPLLQKWVEEAD [Q31W]	0.078 ± 0.12
EESQDIKALQKELEQFAKLLKQKRITLGYTRADVGLTLGVLFGKVFSQTTICRFEALQLSFKNMCKLRPLLQKWVEEAD [Q31R]	-0.469 ± 0.14
EESQDIKALQKELEQFAKLLKQKRITLGYTYADVGLTLGVLFGKVFSQTTICRFEALQLSFKNMCKLRPLLQKWVEEAD [Q31Y]	0.323 ± 0.27
EESQDIKALQKELEQFAKLLKQKRITLGYTLADVGLTLGVLFGKVFSQTTICRFEALQLSFKNMCKLRPLLQKWVEEAD [Q31L]	-0.093 ± 0.2
EESQDIKALQKELEQFAKLLKQKRITLGYTDADVGLTLGVLFGKVFSQTTICRFEALQLSFKNMCKLRPLLQKWVEEAD [Q31D]	-0.126 ± 0.33
EESQDIKALQKELEQFAKLLKQKRITLGYTCADVGLTLGVLFGKVFSQTTICRFEALQLSFKNMCKLRPLLQKWVEEAD [Q31C]	0.266 ± 0.18
EESQDIKALQKELEQFAKLLKQKRITLGYTVADVGLTLGVLFGKVFSQTTICRFEALQLSFKNMCKLRPLLQKWVEEAD [Q31V]	-0.679 ± 0.21
EESQDIKALQKELEQFAKLLKQKRITLGYTKADVGLTLGVLFGKVFSQTTICRFEALQLSFKNMCKLRPLLQKWVEEAD [Q31K]	-0.557 ± 0.34
EESQDIKALQKELEQFAKLLKQKRITLGYTAADVGLTLGVLFGKVFSQTTICRFEALQLSFKNMCKLRPLLQKWVEEAD [Q31A]	-0.103 ± 0.11
EESQDIKALQKELEQFAKLLKQKRITLGYTFADVGLTLGVLFGKVFSQTTICRFEALQLSFKNMCKLRPLLQKWVEEAD [Q31F]	-0.009 ± 0.29
EESQDIKALQKELEQFAKLLKQKRITLGYTGADVGLTLGVLFGKVFSQTTICRFEALQLSFKNMCKLRPLLQKWVEEAD [Q31G]	-0.402 ± 0.16
EESQDIKALQKELEQFAKLLKQKRITLGYTHADVGLTLGVLFGKVFSQTTICRFEALQLSFKNMCKLRPLLQKWVEEAD [Q31H]	-0.108 ± 0.37

Variant	abundance fitness
EESQDIKALQKELEQFAKLLKQKRITLGYTEADVGLTLGVLFGKVFSQTTICRFEALQLSFKNMCKLRPLLQKWVEEAD [Q31E]	0.276 ± 0.1
EESQDIKALQKELEQFAKLLKQKRITLGYTPADVGLTLGVLFGKVFSQTTICRFEALQLSFKNMCKLRPLLQKWVEEAD [Q31P]	0.133 ± 0.14
EESQDIKALQKELEQFAKLLKQKRITLGYTQADVALTLGVLFGKVFSQTTICRFEALQLSFKNMCKLRPLLQKWVEEAD [G35A]	0.266 ± 0.092
EESQDIKALQKELEQFAKLLKQKRITLGYTQADVVLTLGVLFGKVFSQTTICRFEALQLSFKNMCKLRPLLQKWVEEAD [G35V]	-0.743 ± 0.3
EESQDIKALQKELEQFAKLLKQKRITLGYTQADVLLTLGVLFGKVFSQTTICRFEALQLSFKNMCKLRPLLQKWVEEAD [G35L]	-0.769 ± 0.46
EESQDIKALQKELEQFAKLLKQKRITLGYTQADVSLTLGVLFGKVFSQTTICRFEALQLSFKNMCKLRPLLQKWVEEAD [G35S]	0.134 ± 0.14
EESQDIKALQKELEQFAKLLKQKRITLGYTQADVRLTLGVLFGKVFSQTTICRFEALQLSFKNMCKLRPLLQKWVEEAD [G35R]	-0.32 ± 0.17
EESQDIKALQKELEQFAKLLKQKRITLGYTQADVCLTLGVLFGKVFSQTTICRFEALQLSFKNMCKLRPLLQKWVEEAD [G35C]	-0.64 ± 0.32
EESQDIKALQKELEQFAKLLKQKRITLGYTQADVPLTLGVLFGKVFSQTTICRFEALQLSFKNMCKLRPLLQKWVEEAD [G35P]	-0.452 ± 0.29
EESQDIKALQKELEQFAKLLKQKRITLGYTQADVTLTLGVLFGKVFSQTTICRFEALQLSFKNMCKLRPLLQKWVEEAD [G35T]	-0.697 ± 0.42
EESQDIKALQKELEQFAKLLKQKRITLGYTQADVQLTLGVLFGKVFSQTTICRFEALQLSFKNMCKLRPLLQKWVEEAD [G35Q]	-0.039 ± 0.25
EESQDIKALQKELEQFAKLLKQKRITLGYTQADIGLTLGVLFGKVFSQTTICRFEALQLSFKNMCKLRPLLQKWVEEAD [V34I]	-0.031 ± 0.35
EESQDIKALQKELEQFAKLLKQKRITLGYTQADLGLTLGVLFGKVFSQTTICRFEALQLSFKNMCKLRPLLQKWVEEAD [V34L]	-0.258 ± 0.21
EESQDIKALQKELEQFAKLLKQKRITLGYTQADPGLTLGVLFGKVFSQTTICRFEALQLSFKNMCKLRPLLQKWVEEAD [V34P]	0.101 ± 0.2
EESQDIKALQKELEQFAKLLKQKRITLGYTQADTGLTLGVLFGKVFSQTTICRFEALQLSFKNMCKLRPLLQKWVEEAD [V34T]	-0.797 ± 0.47
EESQDIKALQKELEQFAKLLKQKRITLGYTQADGGLTLGVLFGKVFSQTTICRFEALQLSFKNMCKLRPLLQKWVEEAD [V34G]	-0.518 ± 0.17
EESQDIKALQKELEQFAKLLKQKRITLGYTQADQGLTLGVLFGKVFSQTTICRFEALQLSFKNMCKLRPLLQKWVEEAD [V34Q]	-0.231 ± 0.32

Reference: the Human Domainome abundance scans (Beltran et al. 2025)
